doi:10.1101/435982 (bioRxiv, 2018)

Columns and labels:
[1] = molecular target: His-Halo-XcpS62-396 (not stated | P. aeruginosa) (UniProt Q00513); assay: negative-stain electron microscopy structure
SEC-MALS = molecular target: the molecule itself; assay: SEC-MALS

Molecule: His-Halo-XcpS62-396 (from UniProt Q00513 62-396) (domain or fragment)
- stoichiometry N [1]: 2

B1: Strep-mCherry-XcpS56-396 (domain or fragment, P. aeruginosa, UniProt Q00513 56-396, looked up)
chain: RLTFARGLSARDLALVTRQLATLVQAALPIEEALRAAAAQSTSQRIQSMLLAVRAKVLEGHSLAGSLREFPTAFPELYRATVAAGEHAGHLGPVLEQLADYTEQRQQSRQKIQLALLYPVILMVASLAIVGFLLGYVVPDVVRVFIDSGQTLPLLTRVLIGVSDWVKAWGALAFVAAIGGVIGFRYALRKDAFRERWHGFLLRVPLVGRLVRSTDTARFASTLAILTRSGVPLVEALAIAAEVIANRIIRNEVVKAAQKVREGASLTRSLEATGQFPPMMLHMIASGERSGELDQMLARTARNQENDLAAQIGLMVGLFEPFMLIFMGAVVLVIVLAILLP
- stoichiometry N (SEC-MALS): 2
